The target in assay [1] is T1, human GIP receptor (human, UniProt P48546 22-466).
T1 construct: whole, on cells; Used as crude membranes of stably transfected CHO cells; also called hGIPR
T1 sequence (looked up): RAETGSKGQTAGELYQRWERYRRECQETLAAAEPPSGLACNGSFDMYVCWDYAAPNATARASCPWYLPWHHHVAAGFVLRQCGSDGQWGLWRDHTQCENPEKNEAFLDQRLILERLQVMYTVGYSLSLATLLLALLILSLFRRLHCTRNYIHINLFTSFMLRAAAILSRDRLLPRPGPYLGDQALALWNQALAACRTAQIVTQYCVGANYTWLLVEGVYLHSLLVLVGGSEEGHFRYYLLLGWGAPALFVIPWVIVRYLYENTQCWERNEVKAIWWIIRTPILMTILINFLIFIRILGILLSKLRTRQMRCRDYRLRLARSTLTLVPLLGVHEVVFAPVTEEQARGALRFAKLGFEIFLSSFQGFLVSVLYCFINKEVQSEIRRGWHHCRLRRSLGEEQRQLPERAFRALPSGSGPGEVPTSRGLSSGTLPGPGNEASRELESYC
Put plainly: SPA, [125I]-GIP displacement, hGIPR membranes.

Assay [2] deals with T2, human glucagon receptor (human, UniProt P47871 26-477).
T2 construct: whole, on cells; Used as crude membranes of stably transfected HEK293 cells; also called hGcgR; hGLcgR
Put plainly: SPA, [125I]-Gcg displacement, hGcgR membranes.

For assay [3], the target named is T3, human GLP-1 receptor (human, UniProt P43220 24-463).
T3 construct: whole, on cells; Used as crude membranes of stably transfected HEK293 cells; also called hGLP1R; hGLP-1R
Put plainly: SPA, [125I]-GLP-1 displacement, hGLP-1R membranes.

Numbered stars: 1 amine (or outer) side, 2 acyl side, 3 side chain; on linkers, the order of the positions; unused ones are H or OH. Square brackets hold non-standard residues; d marks the D form. Side chains are listed from the residue outwards. Ends that are not written are not given here. * marks the point of attachment. C20 diacid = O=C(O)CCCCCCCCCCCCCCCCCCC(=O)*; γGlu = O=C(O)[C@H](CCC(=O)[*:2])N[*:1]; AEEA = NCCOCCOCC(=O)O; Aib = CC(C)(N)C(=O)O

T2 sequence (P47871 26-477): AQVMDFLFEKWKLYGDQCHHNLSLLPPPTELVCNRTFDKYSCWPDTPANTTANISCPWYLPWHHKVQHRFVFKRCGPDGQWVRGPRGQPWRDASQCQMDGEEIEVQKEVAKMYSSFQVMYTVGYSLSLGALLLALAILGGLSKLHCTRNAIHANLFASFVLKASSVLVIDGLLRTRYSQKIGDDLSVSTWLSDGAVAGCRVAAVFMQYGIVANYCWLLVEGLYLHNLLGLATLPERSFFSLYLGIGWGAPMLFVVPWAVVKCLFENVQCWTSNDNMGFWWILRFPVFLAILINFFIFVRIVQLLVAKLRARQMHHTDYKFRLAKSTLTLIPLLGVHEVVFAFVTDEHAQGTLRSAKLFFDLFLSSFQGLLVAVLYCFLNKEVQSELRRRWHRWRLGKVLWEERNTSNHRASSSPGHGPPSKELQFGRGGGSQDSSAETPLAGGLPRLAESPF

B1: Example 1 (peptide)
peptide: YXEGTXTSDYSIXLDEKAQXEFIXYLIEGGPSSGAPPPS
modifications: Aib2; αMeF(2F)6; αMeL13; K17((2-[2-(2-Amino-ethoxy)-ethoxy]-acetyl)2-(γ-Glu)-CO-(CH2)18-CO2H); Aib20; D-Glu24; C-terminal NH2
What is called Ki is the equilibrium dissociation constant of an inhibitor or competing ligand from its target. Read a low Ki as a stronger hold on the target. Turning to B1, the Ki is 0.0546 nM in assay [1], 207 nM in assay [2] and 6.67 nM in assay [3].

B2: Example 183 (peptide)
peptide: YXEGTXTSDLSIXLDEKAQXEFIXYLIEGGPSSGAPPPS
modifications: not printed (the compound name of this Example is missing from the table of Examples 6-287)
B2: the values for the inhibition constant Ki in assay [1], in assay [2] and in assay [3] were 0.0869 nM, 304 nM and 4.11 nM, respectively.

B3: Example 211 (peptide)
peptide: YXEGTXTSDYSIXLDKKAQXEFIXYLIEGGPSSGAPPPS
modifications: Aib2; αMeF(2F)6; αMeL13; K17((2-[2-(2-Amino-ethoxy)-ethoxy]-acetyl)-(γ-Glu)-(2-[2-(2-Amino-ethoxy)-ethoxy]-acetyl)-CO-(CH2)18-CO2H); Aib20; D-Glu24; C-terminal NH2
Regarding B3, the Ki in assay [1] was 0.0243 nM; in assay [2] it was 131 nM; in assay [3], 2.64 nM.

B4: Example 191 (peptide)
peptide: YXEGTXTSDVSIXLDEKAQXEFIXYLIEGGPSSGAPPPS
modifications: Aib2; αMeF(2F)6; αMeL13; K17((2-[2-(2-Amino-ethoxy)-ethoxy]-acetyl)2-(γ-Glu)-CO-(CH2)18-CO2H); Aib20; D-Glu24; C-terminal NH2
Turning to B4, the Ki was determined as 0.144 nM in assay [1], 348 nM in assay [2] and 4.52 nM in assay [3].

B5: Example 48 (peptide)
peptide: Y[Aib]EGTFTSDYSILLDKIAQ[Aib]AFIEYLIEGGPSSGAPPPK([AEEA-AEEA-γGlu-C20 diacid])-NH2
modifications: N-terminus assumed
SMILES: CC[C@H](C)[C@H](NC(=O)[C@H](CCCCN)NC(=O)[C@H](CC(=O)O)NC(=O)[C@H](CC(C)C)NC(=O)[C@H](CC(C)C)NC(=O)[C@@H](NC(=O)[C@H](CO)NC(=O)[C@H](Cc1ccc(O)cc1)NC(=O)[C@H](CC(=O)O)NC(=O)[C@H](CO)NC(=O)[C@@H](NC(=O)[C@H](Cc1ccccc1)NC(=O)[C@@H](NC(=O)CNC(=O)[C@H](CCC(=O)O)NC(=O)C(C)(C)NC(=O)[C@@H](N)Cc1ccc(O)cc1)[C@@H](C)O)[C@@H](C)O)[C@@H](C)CC)C(=O)N[C@@H](C)C(=O)N[C@@H](CCC(N)=O)C(=O)NC(C)(C)C(=O)N[C@@H](C)C(=O)N[C@@H](Cc1ccccc1)C(=O)N[C@H](C(=O)N[C@@H](CCC(=O)O)C(=O)N[C@@H](Cc1ccc(O)cc1)C(=O)N[C@@H](CC(C)C)C(=O)N[C@H](C(=O)N[C@@H](CCC(=O)O)C(=O)NCC(=O)NCC(=O)N1CCC[C@H]1C(=O)N[C@@H](CO)C(=O)N[C@@H](CO)C(=O)NCC(=O)N[C@@H](C)C(=O)N1CCC[C@H]1C(=O)N1CCC[C@H]1C(=O)N1CCC[C@H]1C(=O)N[C@@H](CCCCNC(=O)COCCOCCNC(=O)COCCOCCNC(=O)CC[C@H](NC(=O)CCCCCCCCCCCCCCCCCCC(=O)O)C(=O)O)C(N)=O)[C@@H](C)CC)[C@@H](C)CC
For the molecule B5, the Ki in assay [1] is 0.074 nM; in assay [2], 111 nM; in assay [3], 15.7 nM.

B6: Example 90 (peptide)
peptide: Y[Aib]NGTFTSDYSILLDKK([AEEA-AEEA-γGlu-C20 diacid])AQ[Aib]AFIEYLIEGGPSSGAPPPS-NH2
modifications: N-terminus assumed
SMILES: CC[C@H](C)[C@H](NC(=O)[C@H](CC(C)C)NC(=O)[C@H](Cc1ccc(O)cc1)NC(=O)[C@H](CCC(=O)O)NC(=O)[C@@H](NC(=O)[C@H](Cc1ccccc1)NC(=O)[C@H](C)NC(=O)C(C)(C)NC(=O)[C@H](CCC(N)=O)NC(=O)[C@H](C)NC(=O)[C@H](CCCCNC(=O)COCCOCCNC(=O)COCCOCCNC(=O)CC[C@H](NC(=O)CCCCCCCCCCCCCCCCCCC(=O)O)C(=O)O)NC(=O)[C@H](CCCCN)NC(=O)[C@H](CC(=O)O)NC(=O)[C@H](CC(C)C)NC(=O)[C@H](CC(C)C)NC(=O)[C@@H](NC(=O)[C@H](CO)NC(=O)[C@H](Cc1ccc(O)cc1)NC(=O)[C@H](CC(=O)O)NC(=O)[C@H](CO)NC(=O)[C@@H](NC(=O)[C@H](Cc1ccccc1)NC(=O)[C@@H](NC(=O)CNC(=O)[C@H](CC(N)=O)NC(=O)C(C)(C)NC(=O)[C@@H](N)Cc1ccc(O)cc1)[C@@H](C)O)[C@@H](C)O)[C@@H](C)CC)[C@@H](C)CC)C(=O)N[C@@H](CCC(=O)O)C(=O)NCC(=O)NCC(=O)N1CCC[C@H]1C(=O)N[C@@H](CO)C(=O)N[C@@H](CO)C(=O)NCC(=O)N[C@@H](C)C(=O)N1CCC[C@H]1C(=O)N1CCC[C@H]1C(=O)N1CCC[C@H]1C(=O)N[C@@H](CO)C(N)=O
Turning to B6, the Ki in assay [1] was 0.0472 nM; in assay [2], 245 nM; in assay [3] it was 4.76 nM.

B7: Example 58 (peptide)
peptide: Y[Aib]EGTFTSDYSSLLDKK([AEEA-AEEA-γGlu-C20 diacid])AQ[Aib]AFIEYLIEGGPSSGAPPPS-NH2
modifications: N-terminus assumed
SMILES: CC[C@H](C)[C@H](NC(=O)[C@H](CC(C)C)NC(=O)[C@H](Cc1ccc(O)cc1)NC(=O)[C@H](CCC(=O)O)NC(=O)[C@@H](NC(=O)[C@H](Cc1ccccc1)NC(=O)[C@H](C)NC(=O)C(C)(C)NC(=O)[C@H](CCC(N)=O)NC(=O)[C@H](C)NC(=O)[C@H](CCCCNC(=O)COCCOCCNC(=O)COCCOCCNC(=O)CC[C@H](NC(=O)CCCCCCCCCCCCCCCCCCC(=O)O)C(=O)O)NC(=O)[C@H](CCCCN)NC(=O)[C@H](CC(=O)O)NC(=O)[C@H](CC(C)C)NC(=O)[C@H](CC(C)C)NC(=O)[C@H](CO)NC(=O)[C@H](CO)NC(=O)[C@H](Cc1ccc(O)cc1)NC(=O)[C@H](CC(=O)O)NC(=O)[C@H](CO)NC(=O)[C@@H](NC(=O)[C@H](Cc1ccccc1)NC(=O)[C@@H](NC(=O)CNC(=O)[C@H](CCC(=O)O)NC(=O)C(C)(C)NC(=O)[C@@H](N)Cc1ccc(O)cc1)[C@@H](C)O)[C@@H](C)O)[C@@H](C)CC)C(=O)N[C@@H](CCC(=O)O)C(=O)NCC(=O)NCC(=O)N1CCC[C@H]1C(=O)N[C@@H](CO)C(=O)N[C@@H](CO)C(=O)NCC(=O)N[C@@H](C)C(=O)N1CCC[C@H]1C(=O)N1CCC[C@H]1C(=O)N1CCC[C@H]1C(=O)N[C@@H](CO)C(N)=O
In the case of B7, the Ki in assay [1] was determined as 0.105 nM; in assay [2], 339 nM; in assay [3], 2.77 nM.

B8: Example 110 (peptide)
peptide: YXEGTFTSDYSILLDKKAQXAFIEYLIEGGPSSGAPPPS
modifications: Aib2; K17((2-[2-(2-Amino-ethoxy)-ethoxy]-acetyl)-(γ-Glu)-(Trx)-CO-(CH2)18-CO2H); Aib20; C-terminal NH2
In the case of B8, the Ki turned out to be 0.0395 nM in assay [1], 73.9 nM in assay [2] and 4.38 nM in assay [3].

B9: Example 108 (peptide)
peptide: YXEGTFTSDYSILLDKKAQXAFIEYLIEGGPSSGAPPPS
modifications: Aib2; K17((2-[2-(2-Amino-ethoxy)-ethoxy]-acetyl)-AOC-(γ-Glu)-CO-(CH2)18-CO2H); Aib20; C-terminal NH2
With B9, the Ki was determined as 0.0732 nM in assay [1], 171 nM in assay [2] and 3 nM in assay [3].

B10: Example 109 (peptide)
peptide: YXEGTFTSDYSILLDKKAQXAFIEYLIEGGPSSGAPPPS
modifications: Aib2; K17(AOC-(2-[2-(2-Amino-ethoxy)-ethoxy]-acetyl)-(γ-Glu)-CO-(CH2)18-CO2H); Aib20; C-terminal NH2
For the molecule B10, the Ki amounted to 0.0279 nM in assay [1], 43.1 nM in assay [2] and 1.34 nM in assay [3].

B11: Example 87 (peptide)
peptide: YXEGTFTSDYSILLDKKAQXAFIEYLIEGGPSSGAPPPS
modifications: αMePro2; K17((2-[2-(2-Amino-ethoxy)-ethoxy]-acetyl)2-(γ-Glu)-CO-(CH2)18-CO2H); Aib20; C-terminal NH2
On to B11, for which the Ki came to 0.034 nM in assay [1], 278 nM in assay [2] and 1.79 nM in assay [3].

B12: Example 135 (peptide)
peptide: H[Aib]NGTFTSDYSILLDKK([AEEA-AEEA-γGlu-C20 diacid])AQ[Aib]AFIEYLIEGGPSSGAPPPS-NH2
modifications: N-terminus assumed
SMILES: CC[C@H](C)[C@H](NC(=O)[C@H](CC(C)C)NC(=O)[C@H](Cc1ccc(O)cc1)NC(=O)[C@H](CCC(=O)O)NC(=O)[C@@H](NC(=O)[C@H](Cc1ccccc1)NC(=O)[C@H](C)NC(=O)C(C)(C)NC(=O)[C@H](CCC(N)=O)NC(=O)[C@H](C)NC(=O)[C@H](CCCCNC(=O)COCCOCCNC(=O)COCCOCCNC(=O)CC[C@H](NC(=O)CCCCCCCCCCCCCCCCCCC(=O)O)C(=O)O)NC(=O)[C@H](CCCCN)NC(=O)[C@H](CC(=O)O)NC(=O)[C@H](CC(C)C)NC(=O)[C@H](CC(C)C)NC(=O)[C@@H](NC(=O)[C@H](CO)NC(=O)[C@H](Cc1ccc(O)cc1)NC(=O)[C@H](CC(=O)O)NC(=O)[C@H](CO)NC(=O)[C@@H](NC(=O)[C@H](Cc1ccccc1)NC(=O)[C@@H](NC(=O)CNC(=O)[C@H](CC(N)=O)NC(=O)C(C)(C)NC(=O)[C@@H](N)Cc1c[nH]cn1)[C@@H](C)O)[C@@H](C)O)[C@@H](C)CC)[C@@H](C)CC)C(=O)N[C@@H](CCC(=O)O)C(=O)NCC(=O)NCC(=O)N1CCC[C@H]1C(=O)N[C@@H](CO)C(=O)N[C@@H](CO)C(=O)NCC(=O)N[C@@H](C)C(=O)N1CCC[C@H]1C(=O)N1CCC[C@H]1C(=O)N1CCC[C@H]1C(=O)N[C@@H](CO)C(N)=O
With B12, the Ki is 0.161 nM in assay [1], 454 nM in assay [2] and 3.01 nM in assay [3].

Source of the values: patent US20200024322A1 (Eli Lilly, published 2020).
